Data from the DeepSol protein solubility set.

Experiment: soluble on expression in E. coli; label from the status in PepcDB or PDB records

For “MEELKELRKEIDRIDEEILRLLNERAKLAKRIGEIKSKANLPIHVPEREREIFEKILRLNKEVYGGVFPQEALVHIYREIISACLSLEKKIKVAYLGPKATFTHQAALEFFGFSAHYTPCSTIRDVFVEVETKRADYGVVPVENTIEGVVNYTLDMFLESDVKIAGEIVIPITLHLLSASDSIENVEKVYSHKMALAQCRSWLEKNLPSVQVIEVESTAKACEIALEDERAGAVASEVAAYTYHLNILARNIQDSGDNFTRFLVIAKRDLKPTGSDKTSILFGVKDEPGALYKALEVFYKHGINLTKIESRPSKKKAWDYVFFVDLEGHKEEERVEKALKELKEKTQFLKVLGSYPKALLQE”, which “soluble on expression in E. coli” value is on record?
Its value is “soluble”.

With “MGSDKIHHHHHHCSDNDSDLTIYIPDAGTAVKANFYIEDEPYVQTFNVAVTPETYPQLTEYGLPNDAVVHLQADPGKVDEYNAKNGTEYELLPEAAYDLTEEVLVKAGTPKSEEAVITVHAKGNIEAFKEYLLPVSITSVEGAVADHCCQTIYFIFRGSMDASNMELLDRTGWEALSASSEEPKEGDWGHSGLKEACLDGDLNTFWGTDWSTQHPQPPHWIVIDLKKTTHIQGFACQAREEGYDGPKEVTVEVSDDNATWTVAAKFKDIPAQGEFRSFLPAAVDGRYLKVTITAVNGGPHVTISELNLF” as the sequence, how does the “soluble on expression in E. coli” value read?
Its value is “not soluble”.

Which “soluble on expression in E. coli” value does the source give for “REINGATRWIPLGPLNFQPTELFKLAVILYLASLFTRREEVLRSMESLGWQSIWRGTANLIMSATNPQARRETLEMYGRFR” here?
The value was “not soluble”.

Which “soluble on expression in E. coli” value does the source give for “SLEEPPKAVELEGLAACEGEYSQKYSTMSPLGSGAFGFVWTAVDKEKNKEVVVKFIKKEKVLEDCWIEDPKLGKVTLEIAILSRVEHANIIKVLDIFENQGFFQLVMEKHGSGLDLFAFIDRHPRLDEPLASYIFRQLVSAVGYLRLKDIIHRDIKDENIVIAEDFTIKLIDFGSAAYLERGKLFYTFCGTIEYCAPEVLMGNPYRGPELEMWSLGVTLYTLVFEENPFCELEETVEAAIHPPYLVSKELMSLVSGLLQPVPERRTTLEKLVTDPWVTQPVNLADYTWEEVCRVNKPESGVLSAASLEMGNRSLSDVAQAQELCGG” here?
The value was “not soluble”.

With “MGSSHHHHHHGGTGENLYFQGGSGMEKAIRDRVEKWKKEHTIDGKDATNEHAYESLNELILDGKKLTSIKNEEKELLKNFKNLERLCLNQTGIQTLENIPSIATLNVLELTDNHLSSVEVLKYIVQNFPNIKTLEIGGNHFKNINDFETLKELKNLVRLGVQFNPFADNPNYRKELFEFLPNVKIIDCYNKEGMEVLSSDEEEEEEYEEDNTLKNFYEADFKDEDDEDEEFVPNDNEDDDEDDELDDDLEDEDMEDLDKEDLDKEDYDIDTKETEGVNKDEKSNKRKQDALDNTNDMDLKKTKLE” as the sequence, how does the “soluble on expression in E. coli” value read?
Its value is “soluble”.

With “SAQDVDECSLGANPCEHAGKCINTLGSFECQCLQGYTGPRCEIDVNECVSNPCQNDATCLDQIGEFQCICMPGYEGVHCEVNTDECASSPCLHNGRCLDKINEFQCECPTGFTGHLCQVDLHHILDAQKMVWNHR” as the sequence, how does the “soluble on expression in E. coli” value read?
Its value is “soluble”.

With “MGSDKIHHHHHHGVDTKGPAGIDATELYASLDLSLLVGNSNVTTKSSELTGPTDGTEENMTKDERSVSDCYIAIFKYDSKTKNVGDFLTSYYSSNGSISESLIFKIPKDKSERTDLKIVVIANAAASVSKYGLASASQISYADLKGKTLVEVPNVFVKVGETEIAKGDGGTYPDNKGGVYVNISEKILGLDQPANTPVEVKLIQRTAAIMLQQFKILKSDGTEYDNVEIKGLSLLNSKTIGQVAGEVSSGEKLYGMQSVNGTTERLYSYENTSSSQPTTLKIDYVYNNGETGSCSFPIKSRLSEASDPKAEVWAGYLYKLTVKLTNAAVDVTVKCVTQDWVFNKDHELEFTF” as the sequence, how does the “soluble on expression in E. coli” value read?
The value was “not soluble”.

Which “soluble on expression in E. coli” value does the source give for “MAHHHHHHMRRTIRVFTGKLLWEDFTNTRLITINREKALNSMDLEMVKAMQRAYVHEPHAKGDSALFVVKGAGNKSFCAGGDIVSLKDRYDVAAEFFYTEYQMNYHILTMPNPQVSLWDGYVMGGGVGVSVHGRYRVASERAVFAMPETAIGLFPDVGASWFLPRLKMKGLGLYLGLTGARLKGADVAHTGLATHYVPSARFCELEERLCHIDDPAKVEACLEEFAVRDLPPFTLEPHRETIEKSFALEEKTTVEGIYESLSADGGEFAKGTINTLNRMAPTSLRVSLEMQKRGVKMTDPADVFRMDYIGSLRTHANSDFHEGVRALLVDKTKDPKWKPAKLSDVTADYVEAYFKPMGNQARQWHPTVPY” here?
The value was “soluble”.

For “MSLSLKELLKDRLSEEELKLVRRSFEIIGDVVIIEIPDEIMHHSRDIVEAILKRHKHVKTVLRKVGEVDGVYRVARYEPIYGEKTETVVREHGCRFLVDPTKAYYSVKLSGERERIARLVGEGERVLVMFAGVGPYPIVIAKLARPREVVGVELNPHAVEYFRQNVRLNKVEGVVKVIEGDVEEVVPQLSGQFDRVVMPAPYSAENFIHLLRGKVRRGGFVHYYTFDSQNEEKILPEKVRRKFEDEGLEVEVVKMRRCGNFAPYVNRYVLDLRVLEGHHHHHH”, which “soluble on expression in E. coli” value is on record?
Its value is “soluble”.

For “MGSDKIHHHHHHKDSNKWKMTGDVSVQDDIMTLKGTDALAVLKNGKYKNFDLTLDLRTTPGGKGAVWFHTDPTLKKGYRIAINNDRADKVWWKMTGSLVSVRNLTKSFVKEDQWFKMDIRVAGQEIDVNINGEPVVEYIQPTAPYRTDANAYALLSEGTFAIESDGSGEIQIKNITVNVIDESTIDINAQLAEANDEQNDEIIKLHQSDFPVLDYHVHLKGGLTKEVAAKQSRKTGINYTIAPNCGIGFPITNDQQVMDYLNEMRSQPFILGMQAEGREWITTFSPETLKEFDYVFTDALTFKDNKGRRTRLWIPEETWIENEEQYMDMIVDRICSVLEEPVDIYVNPCFLPSPMDKRFDEFWTEARMNRFVEALAKSGKALEINELYNIPNKAIIMKAKAAGVKFTFGSNNVTPNVSDLSYSIRMMKECGLTAEDMYKPKVKI”, which “soluble on expression in E. coli” value is on record?
Its value is “not soluble”.

With “MRTLITGASGQLGIELSRLLSERHEVIKVYNSSEIQGGYKLDLTDFPRLEDFIIKKRPDVIINAAAMTDVDKCEIEKEKAYKINAEAVRHIVRAGKVIDSYIVHISTDYVFDGEKGNYKEEDIPNPINYYGLSKLLGETFALQDDSLIIRTSGIFRNKGFPIYVYKTLKEGKTVFAFKGYYSPISARKLASAILELLELRKTGIIHVAGERISRFELALKIKEKFNLPGEVKEVDEVRGWIAKRPYDSSLDSSRARKILSTDFYTLDLDGMVV” as the sequence, how does the “soluble on expression in E. coli” value read?
Its value is “soluble”.

Which “soluble on expression in E. coli” value does the source give for “PNKDVKIVKEVLLYKGSPFTGNIIMNTEDQKDGYIGGISLKNGHLDGLSELKNDRQGQHMRFTVVGGKFDGELIMNDPSQNTYIMLDINKGAIVKYLADIQGVYKYDLNFVNNLANGSMEAQGQIFTFKNGIAKGPQGQELKLTLNPATGDLEMEAFVNGKAAGKQTIPNVLTPQYLESFLFQSITDTNN” here?
The value was “not soluble”.

Which “soluble on expression in E. coli” value does the source give for “MQVLHVCSEMFPLLKTGGLADVIGALPAAQIADGVDARVLLPAFPDIRRGVTDAQVVSRRDTFAGHITLLFGHYNGVGIYLIDAPHLYDRPGSPYHDTNLFAYTDNVLRFALLGWVGAEMASGLDPFWRPDVVHAHDWHAGLAPAYLAARGRPAKSVFTVHNLAYQGMFYAHHMNDIQLPWSFFNIHGLEFNGQISFLKAGLYYADHITAVSPTYAREITEPQFAYGMEGLLQQRHREGRLSGVLNGVDEKIWSPETDLLLASRYTRDTLEDKAENKRQLQIAMGLKVDDKVPLFAVVSRLTSQKGLDLVLEALPGLLEQGGQLALLGAGDPVLQEGFLAAAAEYPGQVGVQIGYHEAFSHRIMGGADVILVPSRFAPCGLTQLYGLKYGTLPLVRRTGGLADTVSDCSLENLADGVASGFVFEDSNAWSLLRAIRRAFVLWSRPSLWRFVQRQAMAMDFSWQVAAKSYRELYYRLKLEHHHHHH” here?
Its value is “soluble”.

Which “soluble on expression in E. coli” value does the source give for “MHHHHHHSSGVDLGTENLYFQSMNITKGGLVLFSANSNSSCMELSKKIAERLGVEMGKVQVYQEPNRETRVQIQESVRGKDVFIIQTVSKDVNTTIMELLIMVYACKTSCAKSIIGVIPYFPYSKQCKMRKRGSIVSKLLASMMCKAGLTHLITMDLHQKEIQGFFNIPVDNLRASPFLLQYIQEEIPDYRNAVIVAKSPASAKRAQSFAERLRLGIAVIHGEAQDAESDLVDGRHSPPMVRSVAAIHPSLEIPMLIPKEKPPITVVGDVGGRIAIIVDDIIDDVDSFLAAAETLKERGAYKIFVMATHGLLSSDAPRRIEESAIDEVVVTNTIPHEVQKLQCPKIKTVDISMILSEAIRRIHNGESMSYLFRNIGLDD” here?
Its value is “soluble”.
